# Experimental data: patent US20120095193A1 (published 2012)
# B1: BPC1634 (antibody, human IgG1, kappa, V domains shown)
# VH: EVQLVESGGGLVQPGGSLRLSCAASGFTFSDAWMDWVRQAPGKGLEWVAEIRNKANNHARHYAESVKGRFTISRDNAKNSLYLQMNSLRAEDTAVYYCARTYYYGSSYGYCDVWGQGTLVTVSS
# VL: DIQMTQSPSSLSASVGDRVTITCRTSENIYSYLAWYQQKPGKAPKLLIYNAKTLAEGVPSRFSGSGSGTDFTLTISSLQPEDFATYYCQHHYGTPWTFGQGTKLEIKR
# notes: Humanized, human gamma 1 / kappa; also called 7B4 H0L0; Humanized 7B4.1E11 H0L0
# B2: BPC1642 (antibody, human IgG1, kappa, V domains shown)
# VH: EVQLVESGGGLVQPGGSLRLSCAASGFTFSDAWMDWVRQAPGKGLEWVAEIRNKANNHARHYAESVKGRFTISRDNAKNSLYLQMNSLRAEDTAVYYCTRTYYYGSSYGYCDVWGQGTLVTVSS
# VL: DIQMTQSPSSLSASVGDRVTITCRTSENIYSYLAWYQQKPGKAPKLLVYNAKTLAEGVPSRFSGSGSGTDFTLTISSLQPEDFATYYCQHHYGTPWTFGQGTKLEIKR
# notes: Humanized, human gamma 1 / kappa; also called 7B4 H1L1
# B3: BPC1646 (antibody, human IgG1, kappa, V domains shown)
# VH: EVQLVESGGGLVQPGGSLRLSCAASGFTSSDAWMDWVRQAPGKGLEWVAEIRNKANNHARHYAESVKGRFTISRDNAKNSVYLQMNSLRAEDTAVYYCTRTYYYGSSYGYCDVWGQGTLVTVSS
# VL: DIQMTQSPSSLSASVGDRVTITCRTSENIYSYLAWYQQKPGKAPKLLVYNAKTLAEGVPSRFSGSGSGTDFTLTISSLQPEDFATYYCQHHYGTPWTFGQGTKLEIKR
# notes: Humanized, human gamma 1 / kappa; also called 7B4 H5L1
# B4: BPC1649 (antibody, human IgG1, kappa, V domains shown)
# VH: EVQLVESGGGLVQPGGSLRLSCAASGFTFSDAWMDWVRQAPGKGLEWVAEIRNKANNHARHYAESVKGRFTISRDNAKNSLYLQMNSLRAEDTAVYYCTRTYYYGSSYGYCDVWGQGTLVTVSS
# VL: DIQMTQSPSSLSASVGDRVTITCRTSENIYSYLAWYQQKPGKAPQLLVYNAKTLAEGVPSRFSGSGSGTDFTLTISSLQPEDFATYYCQHHYGTPWTFGQGTKLEIKR
# notes: Humanized, human gamma 1 / kappa; also called 7B4 H1L2
# B5: BPC1647 (antibody, human IgG1, kappa, V domains shown)
# VH: EVQLVESGGGLVQPGGSLRLSCAASGFTSSDAWMDWVRQAPGKGLEWVAEIRNKANNHARHYAESVKGRFTISRDDAKNSVYLQMNSLRAEDTAVYYCTRTYYYGSSYGYCDVWGQGTLVTVSS
# VL: DIQMTQSPSSLSASVGDRVTITCRTSENIYSYLAWYQQKPGKAPKLLVYNAKTLAEGVPSRFSGSGSGTDFTLTISSLQPEDFATYYCQHHYGTPWTFGQGTKLEIKR
# notes: Humanized, human gamma 1 / kappa; also called 7B4 H6L1
# B6: BPC1643 (antibody, human IgG1, kappa, V domains shown)
# VH: EVQLVESGGGLVQPGGSLRLSCAASGFTSSDAWMDWVRQAPGKGLEWVAEIRNKANNHARHYAESVKGRFTISRDNAKNSLYLQMNSLRAEDTAVYYCARTYYYGSSYGYCDVWGQGTLVTVSS
# VL: DIQMTQSPSSLSASVGDRVTITCRTSENIYSYLAWYQQKPGKAPKLLVYNAKTLAEGVPSRFSGSGSGTDFTLTISSLQPEDFATYYCQHHYGTPWTFGQGTKLEIKR
# notes: Humanized, human gamma 1 / kappa; also called 7B4 H2L1
# B7: BPC1640 (antibody, human IgG1, kappa, V domains shown)
# VH: EVQLVESGGGLVQPGGSLRLSCAASGFTSSDAWMDWVRQAPGKGLEWVAEIRNKANNHARHYAESVKGRFTISRDDAKNSVYLQMNSLRAEDTAVYYCTRTYYYGSSYGYCDVWGQGTLVTVSS
# VL: DIQMTQSPSSLSASVGDRVTITCRTSENIYSYLAWYQQKPGKAPKLLIYNAKTLAEGVPSRFSGSGSGTDFTLTISSLQPEDFATYYCQHHYGTPWTFGQGTKLEIKR
# notes: Humanized, human gamma 1 / kappa; also called 7B4 H6L0
# B8: BPC1652 (antibody, human IgG1, kappa, V domains shown)
# VH: EVQLVESGGGLVQPGGSLRLSCAASGFTSSDAWMDWVRQAPGKGLEWVAEIRNKANNHARHYAESVKGRFTISRDDAKNSLYLQMNSLRAEDTAVYYCTRTYYYGSSYGYCDVWGQGTLVTVSS
# VL: DIQMTQSPSSLSASVGDRVTITCRTSENIYSYLAWYQQKPGKAPQLLVYNAKTLAEGVPSRFSGSGSGTDFTLTISSLQPEDFATYYCQHHYGTPWTFGQGTKLEIKR
# notes: Humanized, human gamma 1 / kappa; also called 7B4 H4L2
# B9: BPC1648 (antibody, human IgG1, kappa, V domains shown)
# VH: EVQLVESGGGLVQPGGSLRLSCAASGFTFSDAWMDWVRQAPGKGLEWVAEIRNKANNHARHYAESVKGRFTISRDNAKNSLYLQMNSLRAEDTAVYYCARTYYYGSSYGYCDVWGQGTLVTVSS
# VL: DIQMTQSPSSLSASVGDRVTITCRTSENIYSYLAWYQQKPGKAPQLLVYNAKTLAEGVPSRFSGSGSGTDFTLTISSLQPEDFATYYCQHHYGTPWTFGQGTKLEIKR
# notes: Humanized, human gamma 1 / kappa; also called 7B4 H0L2
# B10: BPC1653 (antibody, human IgG1, kappa, V domains shown)
# VH: EVQLVESGGGLVQPGGSLRLSCAASGFTSSDAWMDWVRQAPGKGLEWVAEIRNKANNHARHYAESVKGRFTISRDNAKNSVYLQMNSLRAEDTAVYYCTRTYYYGSSYGYCDVWGQGTLVTVSS
# VL: DIQMTQSPSSLSASVGDRVTITCRTSENIYSYLAWYQQKPGKAPQLLVYNAKTLAEGVPSRFSGSGSGTDFTLTISSLQPEDFATYYCQHHYGTPWTFGQGTKLEIKR
# notes: Humanized, human gamma 1 / kappa; also called 7B4 H5L2
# B11: BPC1639 (antibody, human IgG1, kappa, V domains shown)
# VH: EVQLVESGGGLVQPGGSLRLSCAASGFTSSDAWMDWVRQAPGKGLEWVAEIRNKANNHARHYAESVKGRFTISRDNAKNSVYLQMNSLRAEDTAVYYCTRTYYYGSSYGYCDVWGQGTLVTVSS
# VL: DIQMTQSPSSLSASVGDRVTITCRTSENIYSYLAWYQQKPGKAPKLLIYNAKTLAEGVPSRFSGSGSGTDFTLTISSLQPEDFATYYCQHHYGTPWTFGQGTKLEIKR
# notes: Humanized, human gamma 1 / kappa; also called 7B4 H5L0
# B12: BPC1651 (antibody, human IgG1, kappa, V domains shown)
# VH: EVQLVESGGGLVQPGGSLRLSCAASGFTSSDAWMDWVRQAPGKGLEWVAEIRNKANNHARHYAESVKGRFTISRDNAKNSLYLQMNSLRAEDTAVYYCTRTYYYGSSYGYCDVWGQGTLVTVSS
# VL: DIQMTQSPSSLSASVGDRVTITCRTSENIYSYLAWYQQKPGKAPQLLVYNAKTLAEGVPSRFSGSGSGTDFTLTISSLQPEDFATYYCQHHYGTPWTFGQGTKLEIKR
# notes: Humanized, human gamma 1 / kappa; also called 7B4 H3L2
# B13: BPC1650 (antibody, human IgG1, kappa, V domains shown)
# VH: EVQLVESGGGLVQPGGSLRLSCAASGFTSSDAWMDWVRQAPGKGLEWVAEIRNKANNHARHYAESVKGRFTISRDNAKNSLYLQMNSLRAEDTAVYYCARTYYYGSSYGYCDVWGQGTLVTVSS
# VL: DIQMTQSPSSLSASVGDRVTITCRTSENIYSYLAWYQQKPGKAPQLLVYNAKTLAEGVPSRFSGSGSGTDFTLTISSLQPEDFATYYCQHHYGTPWTFGQGTKLEIKR
# notes: Humanized, human gamma 1 / kappa; also called 7B4 H2L2
# B14: BPC1654 (antibody, human IgG1, kappa, V domains shown)
# VH: EVQLVESGGGLVQPGGSLRLSCAASGFTSSDAWMDWVRQAPGKGLEWVAEIRNKANNHARHYAESVKGRFTISRDDAKNSVYLQMNSLRAEDTAVYYCTRTYYYGSSYGYCDVWGQGTLVTVSS
# VL: DIQMTQSPSSLSASVGDRVTITCRTSENIYSYLAWYQQKPGKAPQLLVYNAKTLAEGVPSRFSGSGSGTDFTLTISSLQPEDFATYYCQHHYGTPWTFGQGTKLEIKR
# notes: Humanized, human gamma 1 / kappa; also called 7B4 H6L2
# B15: BPC1641 (antibody, human IgG1, kappa, V domains shown)
# VH: EVQLVESGGGLVQPGGSLRLSCAASGFTFSDAWMDWVRQAPGKGLEWVAEIRNKANNHARHYAESVKGRFTISRDNAKNSLYLQMNSLRAEDTAVYYCARTYYYGSSYGYCDVWGQGTLVTVSS
# VL: DIQMTQSPSSLSASVGDRVTITCRTSENIYSYLAWYQQKPGKAPKLLVYNAKTLAEGVPSRFSGSGSGTDFTLTISSLQPEDFATYYCQHHYGTPWTFGQGTKLEIKR
# notes: Humanized, human gamma 1 / kappa; also called 7B4 H0L1
# B16: BPC1645 (antibody, human IgG1, kappa, V domains shown)
# VH: EVQLVESGGGLVQPGGSLRLSCAASGFTSSDAWMDWVRQAPGKGLEWVAEIRNKANNHARHYAESVKGRFTISRDDAKNSLYLQMNSLRAEDTAVYYCTRTYYYGSSYGYCDVWGQGTLVTVSS
# VL: DIQMTQSPSSLSASVGDRVTITCRTSENIYSYLAWYQQKPGKAPKLLVYNAKTLAEGVPSRFSGSGSGTDFTLTISSLQPEDFATYYCQHHYGTPWTFGQGTKLEIKR
# notes: Humanized, human gamma 1 / kappa; also called 7B4 H4L1
# Biological target: T1, human ADAMTS5 (human, UniProt Q9UNA0 262-622, limits assumed)
# T1 construct: Octet and ELISA used 'recombinant human ADAMTS5'; also called recombinant human ADAMTS5; ADAMTS5 (R&D Systems 2198-AD)
# T1 sequence: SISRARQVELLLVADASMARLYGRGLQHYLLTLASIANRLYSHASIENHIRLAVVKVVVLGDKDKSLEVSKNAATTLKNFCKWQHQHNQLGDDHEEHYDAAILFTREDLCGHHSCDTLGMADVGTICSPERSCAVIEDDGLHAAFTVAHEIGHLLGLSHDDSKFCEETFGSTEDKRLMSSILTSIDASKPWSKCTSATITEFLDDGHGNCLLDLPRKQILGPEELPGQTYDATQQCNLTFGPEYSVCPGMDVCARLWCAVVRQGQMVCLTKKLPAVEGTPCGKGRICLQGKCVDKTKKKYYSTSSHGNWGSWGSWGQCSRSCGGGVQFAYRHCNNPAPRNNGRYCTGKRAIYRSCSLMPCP
# Assay: Octet QK, antigen down, incl avidity
row,Binder,Kd [nM]
1,B1,0.205

# Biological target: T1, human ADAMTS5
# Assay: Biacore, mAb down, no avidity
row,Binder,Kd [nM]
1,B1,0.869

# Biological target: T1, human ADAMTS5
# Assay: Biacore, mAb from culture supernatant captured on anti-human IgG, ADAMTS5 (R&D 2198-AD) at 64 nM, 1:1 fit
# Description: Anti-human IgG (Biacore™, BR-1008-39) was immobilized on a CM5 chip by primary amine coupling. This surface was then used to capture the humanized antibodies, ADAMTS5 (R&D Systems 2198-AD) was then passed over the captured antibody at a single concentration of 64 nM, regeneration was carried out using 100 mM phosphoric acid followed by 3M MgCl₂. The binding curves were double referenced with buffer injection (i.e. 0 nM) and the data was fitted to the T100 analysis software using the 1:1 model. The run was carried out at 25° C., using HBS-EP as the running buffer. All antibodies were captured from tissue culture supernatants unless specified.
Binder,Kd [nM],koff [s⁻¹],kon [M⁻¹ s⁻¹]
B1,0.869,0.000481,554000
B2,1.36,0.00121,887000
B3,1.03,0.00184,1.79e+06
B4,1.27,0.0013,1.02e+06
B5,0.978,0.00145,1.48e+06
B6,1.05,0.00143,1.36e+06
B7,1.08,0.000849,787000
B8,1.08,0.00212,1.96e+06
B9,1.21,0.000951,788000
B10,1.16,0.0026,2.24e+06
B11,0.964,0.000894,927000
B12,1.19,0.00315,2.65e+06
B13,1.09,0.00343,3.14e+06
B14,1.09,0.00114,1.04e+06
B15,1.32,0.000945,714000
B16,1.04,0.00116,1.12e+06
